{"source": "patent US20240043568A1", "about": "(KEYMED BIOSCIENCES, published 2024)", "binders": {"B1": {"name": "GPC3×CD3 κλ002 (bispecific antibody, human IgG4 S228P, kappa, lambda)", "light 1": "DVVMTQSPLSLPVTPGEPASISCRSSQSIVHSNGNTYLEWYLKKPGQSPQLLIYKVSNRFSGVPDRFSGSGSGTDFTLKISRVEAEDVGVYFCLQVTHVPLTFGQGTKLEIKRTVAAPSVFIFPPSDEQLKSGTASVVCLLNNFYPREAKVQWKVDNALQSGNSQESVTEQDSKDSTYSLSSTLTLSKADYEKHKVYACEVTHQGLSSPVTKSFNRGEC", "heavy 1": "QVQLVQSGAEVKKPGSSVKVSCKASGYTFADYEIHWVREAPGQGLEWMGAIHPGSGGTAYAQKFQGRVTLTADESSTTAYMELSSLRSEDTAVYYCTRYYSFAYWGQGTLVTVSSASTKGPSVFPLAPCSRSTSESTAALGCLVKDYFPEPVTVSWNSGALTSGVHTFPAVLQSSGLYSLSSVVTVPSSSLGTKTYTCNVDHKPSNTKVDKRVESKYGPPCPPCPAPEFEGGPSVFLFPPKPKDTLMISRTPEVTCVVVDVSQEDPEVQFNWYVDGVEVHNAKTKPREEQFNSTYRVVSVLTVLHQDWLNGKEYKCKVSNKGLASSIEKTISKAKGQPREPQVCTLPPSQEEMTKNQVSLSCAVKGFYPSDIAVEWESNGQPENNYKTTPPVLDSDGSFFLVSKLTVDKSRWQEGNVFSCSVMHEALHNHYTQKSLSLSLGK", "light 2": "QAVVTQEPSLTVSPGGTVTLTCRSSTGAVTTSNYANWVQEKPGQAPRGLIGGTNKRAPWTPARFSGSLLGGKAALTITGAQAEDEAEYYCVLWYSNLWVFGGGTKLTVLGQPKAAPSVTLFPPSSEELQANKATLVCLISDFYPGAVTVAWKADSSPVKAGVETTTPSKQSNNKYAASSYLSLTPEQWKSHRSYSCQVTHEGSTVEKTVAPTECS", "heavy 2": "EVQLVESGGGLVQPGGSLRLSCAASGFTFNTYAMNWVRKAPGKGLEWVGRIRSKYNNYATYYADSVKDRFTISRDDSKNSLYLQMNSLKTEDTAVYYCVRHGNFGNSYVSWFAYWGQGTLVTVSSASTKGPSVFPLAPCSRSTSESTAALGCLVKDYFPEPVTVSWNSGALTSGVHTFPAVLQSSGLYSLSSVVTVPSSSLGTKTYTCNVDHKPSNTKVDKRVESKYGPPCPPCPAPEFEGGPSVFLFPPKPKDTLMISRTPEVTCVVVDVSQEDPEVQFNWYVDGVEVHNAKTKPREEQFNSTYRVVSVLTVLHQDWLNGKEYKCKVSNKGLASSIEKTISKAKGQPREPQVYTLPPCQEEMTKNQVSLWCLVKGFYPSDIAVEWESNGQPENNYKTTPPVLDSDGSFFLYSKLTVDKSRWQEGNVFSCSVMHEALHNHYTQKSLSLSLGK", "notes": "also called GPC3 x CD3 κλ002; GPC3×CD3κλ bispecific antibody"}, "B2": {"name": "GPC3×CD3 κλ003 (bispecific antibody, human IgG4 S228P, kappa, lambda)", "light 1": "B1 light 1 with E128K, Q129K", "heavy 1": "B1 heavy 1 with K145E, K211E", "light 2": "B1 light 2", "heavy 2": "B1 heavy 2", "notes": "also called GPC3 x CD3 κλ003; GPC3×CD3κλ bispecific antibody"}}, "key": {"[1]": {"target": "T1, cynomolgus monkey CD3εγ-Fc heterodimer (cynomolgus monkey)", "T1 construct": "also called monkey CD3 εγ protein", "T1 chain 1": "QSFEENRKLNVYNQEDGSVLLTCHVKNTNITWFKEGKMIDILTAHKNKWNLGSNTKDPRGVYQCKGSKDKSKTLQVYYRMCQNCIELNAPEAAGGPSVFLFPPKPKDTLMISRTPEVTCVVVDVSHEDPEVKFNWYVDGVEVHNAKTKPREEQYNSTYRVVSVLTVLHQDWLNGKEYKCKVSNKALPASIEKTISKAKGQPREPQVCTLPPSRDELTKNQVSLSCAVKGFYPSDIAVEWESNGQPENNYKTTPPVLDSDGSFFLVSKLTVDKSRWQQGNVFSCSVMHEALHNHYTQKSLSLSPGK", "T1 chain 2": "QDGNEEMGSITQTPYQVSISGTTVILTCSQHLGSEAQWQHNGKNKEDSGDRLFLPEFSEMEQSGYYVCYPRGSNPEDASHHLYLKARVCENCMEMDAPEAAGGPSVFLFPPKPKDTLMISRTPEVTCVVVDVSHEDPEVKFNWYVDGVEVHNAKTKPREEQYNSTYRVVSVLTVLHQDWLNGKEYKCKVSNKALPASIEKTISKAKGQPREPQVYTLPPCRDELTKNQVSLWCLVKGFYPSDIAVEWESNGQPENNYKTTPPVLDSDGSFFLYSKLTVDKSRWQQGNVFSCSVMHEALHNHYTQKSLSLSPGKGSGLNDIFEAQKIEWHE", "test": "SPR (Biacore T200), CD3εγ amine-coupled to the chip, antibody as analyte", "method": "(§1) Human or monkey CD3 εγ recombinant antigen at 10 μg/mL was bound to a CMS chip (GE healthcare) by amino coupling, and the antigen binding capacity was controlled to approximately 200 RU. After the baseline was stable, gradient diluted antibodies (initially with 10 μg/mL, 2-fold dilution, 7 gradients) were flowed through the chip at a flow rate of 30 μL/min, with an association time of 350 seconds and a dissociation time of 600 seconds. The kinetic constants were obtained by fitting with 1:1 binding model using Biacore T200 evaluation software."}, "[2]": {"target": "T2, human CD3εγ-Fc heterodimer (human)", "T2 construct": "also called human CD3 εγ protein; recombinant CD3 εγ protein", "T2 chain 1": "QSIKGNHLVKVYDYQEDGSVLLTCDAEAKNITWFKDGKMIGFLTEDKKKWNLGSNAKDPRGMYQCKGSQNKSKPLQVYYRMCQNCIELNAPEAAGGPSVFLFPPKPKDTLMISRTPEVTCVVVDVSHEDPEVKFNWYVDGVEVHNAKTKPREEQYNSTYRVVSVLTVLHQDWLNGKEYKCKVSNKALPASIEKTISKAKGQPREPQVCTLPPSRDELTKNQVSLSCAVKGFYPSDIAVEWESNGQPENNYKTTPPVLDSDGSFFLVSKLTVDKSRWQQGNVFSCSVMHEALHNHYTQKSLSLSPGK", "T2 chain 2": "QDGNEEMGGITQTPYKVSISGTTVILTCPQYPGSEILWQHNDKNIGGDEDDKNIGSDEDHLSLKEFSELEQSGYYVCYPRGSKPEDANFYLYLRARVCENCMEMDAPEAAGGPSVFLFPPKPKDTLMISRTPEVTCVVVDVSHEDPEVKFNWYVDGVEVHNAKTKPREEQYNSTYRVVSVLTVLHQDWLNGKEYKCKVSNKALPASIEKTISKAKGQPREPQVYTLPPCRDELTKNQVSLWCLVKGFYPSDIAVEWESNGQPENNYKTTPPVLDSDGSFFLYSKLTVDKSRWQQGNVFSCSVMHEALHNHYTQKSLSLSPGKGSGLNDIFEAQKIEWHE", "test": "SPR (Biacore T200), CD3εγ amine-coupled to the chip, antibody as analyte", "method": "as §1"}, "human GPC3 on cells": {"target": "T3, human GPC3 on cells (human, UniProt P51654 25-563)", "T3 construct": "whole, on cells; One molecule is used for both CHO-hGPC3 transfectants and GPC3+ HepG2 cells; The assay field names the cell; also called CHO-hGPC3 (clone 2B10); CHO-human GPC3", "test": "flow cytometry, CHO-human GPC3 cells", "method": "(§2) CHO-human GPC3 and CHO-cynomolgus monkey GPC3 stably-transfected cells in the logarithmic growth phase were taken, adjusted to 5×10⁵ cells/ml using 4% calf serum (Hyclone, SH30626.06), and added to a 96-well U-shaped plate at 100 μl/well cell suspension. The centrifugation was performed at 300 g for 5 min. The supernatant was discarded. 100 μL of gradient diluted antibody (initial concentration: 1800 nM, 3-fold dilution, 10 gradients) was added to each well, and incubated at 4° C. for 60 min. The secondary antibody Alexa Fluro647 labeled goat anti-human IgG Fc (1:300 dilution) was added at 50 μL/well and incubated on ice for 20 min. After washing once, propidium iodide solution (1:300) was added at 50 μL/well. Incubation was performed for 5 min before detection by flow cytometry."}, "[3]": {"target": "T4, cynomolgus monkey GPC3 on CHO cells (cynomolgus monkey, UniProt A0A2K5VK50 24-579)", "T4 construct": "whole, on cells; also called CHO-cynoGPC3 (clone 4D6); CHO-cynomolgus monkey GPC3", "test": "flow cytometry, CHO-cynomolgus monkey GPC3 cells", "method": "as §2"}, "human CD3 on T cells [4]": {"target": "T5, human CD3 on T cells (human, UniProt P07766 23-207)", "T5 construct": "whole, on cells; The target is the native CD3 complex on cells; The recombinant antigen used elsewhere is the εγ heterodimer; also called CD3 on Jurkat cells; CD3 on human peripheral blood CD4+ and CD8+ T cells", "test": "flow cytometry, human peripheral blood CD4+ T cells", "method": "(§3) Fresh human peripheral blood was taken and PBMCs were isolated by Ficoll-Paque Plus (GE, 17-1440-03). The PBMCs were adjusted to 5×10⁵ cells/mL with 4% calf serum (Hyclone, SH30626.06), and added to a 96-well U-plate at 100 μL/well. The centrifuged supernatant was discarded. 100 μL of gradient diluted antibody (initial concentration: 1800 nM, 3-fold dilution, 11 gradients) was added to each well and incubated at 4° C. for 60 minutes. The secondary antibody Alexa Fluro647 labeled goat anti-human IgG Fc (1:300 dilution) was added at 50 μL/well and incubated on an ice bath for 20 min. After washing once, PI solution was added at 50 μL/well. Incubation was performed for 5 min before detection by flow cytometry (BD Celesta). The GPC3×CD3κλ bispecific antibody can bind to the human peripheral blood T cell with low affinity."}, "human CD3 on T cells [5]": {"target": "T5, human CD3 on T cells", "test": "flow cytometry, human peripheral blood CD8+ T cells", "method": "as §3"}}, "note": "Substitutions are numbered along the chain they refer to."}
{"binder": "B1", "values": [{"measurement": "Kd", "setting": "[1]", "result": 23.9, "unit": "nM"}, {"measurement": "Kd", "setting": "[2]", "result": 15.9, "unit": "nM"}, {"measurement": "EC50", "setting": "human GPC3 on cells", "result": 2.8, "unit": "nM"}, {"measurement": "EC50", "setting": "[3]", "result": 3, "unit": "nM"}, {"measurement": "EC50", "setting": "human CD3 on T cells [4]", "result": 65, "unit": "nM"}, {"measurement": "EC50", "setting": "human CD3 on T cells [5]", "result": 65, "unit": "nM"}]}
{"binder": "B2", "values": [{"measurement": "Kd", "setting": "[1]", "result": 17.8, "unit": "nM"}, {"measurement": "Kd", "setting": "[2]", "result": 12.1, "unit": "nM"}, {"measurement": "EC50", "setting": "human GPC3 on cells", "result": 2.9, "unit": "nM"}, {"measurement": "EC50", "setting": "[3]", "result": 3, "unit": "nM"}, {"measurement": "EC50", "setting": "human CD3 on T cells [4]", "result": 56, "unit": "nM"}, {"measurement": "EC50", "setting": "human CD3 on T cells [5]", "result": 69, "unit": "nM"}]}
